Results on 2 molecules are retold here after patent publication US20070190061A1.

The target of this assay is HMW-MAA-specific idiotypic mAb 763.74. Briefly: peptide concentration giving 50% inhibition of biotinylated mAb 763.74 binding to Colo38 cells, cell ELISA. A general note: ELISA stands for enzyme-linked immunosorbent assay.

By IC50 is commonly meant the concentration needed to halve the response being measured. A low value points to greater potency.

ARSNYVGYHVRWYFD [peptide PMK2-23H3 (anti-id mAb MK2-23 H3-derived peptide)] returned an IC50 of 871 nM. This lies in the sub-micromolar range. Molecule IRSGDEVHYHVTAGPRW [peptide PHMW-MAA.D2.7 (HMW-MAA-derived peptide)] showed a 50% inhibitory concentration (IC50) of 900 nM. This IC50 and that of the molecule before are within 1.5-fold of each other.
